According to paper PMC9557730 (2022):

B1: N-terminal 3×-FLAG-tagged p52 (WT) [human] / XPB [human (endogenous in HEK293T)] (parent complex)
chain 1: MESTPSRGLNRVHLQCRNLQEFLGGLSPGVLDRLYGHPATCLAVFRELPSLAKNWVMRMLFLEQPLPQAAVALWVKKEFSKAQEESTGLLSGLRIWHTQLLPGGLQGLILNPIFRQNLRIALLGGGKAWSDDTSQLGPDKHARDVPSLDKYAEERWEVVLHFMVGSPSAAVSQDLAQLLSQAGLMKSTEPGEPPCITSAGFQFLLLDTPAQLWYFMLQYLQTAQSRGMDLVEILSFLFQLSFSTLGKDYSVEGMSDSLLNFLQHLREFGLVFQRKRKSRRYYPTRLAINLSSGVSGAGGTVHQPGFIVVETNYRLYAYTESELQIALIALFSEMLYRFPNMVVAQVTRESVQQAIASGITAQQIIHFLRTRAHPVMLKQTPVLPPTITDQIRLWELERDRLRFTEGVLYNQFLSQVDFELLLAHARELGVLVFENSAKRLMVVTPAGHSDVKRFWKRQKHSS
chain 2: MGKRDRADRDKKKSRKRHYEDEEDDEEDAPGNDPQEAVPSAAGKQVDESGTKVDEYGAKDYRLQMPLKDDHTSRPLWVAPDGHIFLEAFSPVYKYAQDFLVAIAEPVCRPTHVHEYKLTAYSLYAAVSVGLQTSDITEYLRKLSKTGVPDGIMQFIKLCTVSYGKVKLVLKHNRYFVESCHPDVIQHLLQDPVIRECRLRNSEGEATELITETFTSKSAISKTAESSGGPSTSRVTDPQGKSDIPMDLFDFYEQMDKDEEEEEETQTVSFEVKQEMIEELQKRCIHLEYPLLAEYDFRNDSVNPDINIDLKPTAVLRPYQEKSLRKMFGNGRARSGVIVLPCGAGKSLVGVTAACTVRKRCLVLGNSAVSVEQWKAQFKMWSTIDDSQICRFTSDAKDKPIGCSVAISTYSMLGHTTKRSWEAERVMEWLKTQEWGLMILDEVHTIPAKMFRRVLTIVQAHCKLGLTATLVREDDKIVDLNFLIGPKLYEANWMELQNNGYIAKVQCAEVWCPMSPEFYREYVAIKTKKRILLYTMNPNKFRACQFLIKFHERRNDKIIVFADNVFALKEYAIRLNKPYIYGPTSQGERMQILQNFKHNPKINTIFISKVGDTSFDLPEANVLIQISSHGGSRRQEAQRLGRVLRAKKGMVAEEYNAFFYSLVSQDTQEMAYSTKRQRFLVDQGYSFKVITKLAGMEEEDLAFSTKEEQQQLLQKVLAATDLDAEEEVVAGEFGSRSSQASRRFGTMSSMSGADDTVYMEYHSSRSKAPSKHVHPLFKRFRK

Variants of: B1
Test: FLAG-IP–Western; HEK293T nuclear extracts; n = 3, biological replicates; read off a plot

response	Variant
~0.13 Normalized Western Signal	chain 1 MESTPSRGLNRVHLQCRNLQEFLGGLSPGVLDRLYGHPATCLAVFRELPSLAKNWVMRMLFLEQPLPQAAVALWVKKEFSKAQEESTGLLSGLRIWHTQLLPGGLQGLILNPIFRQNLRIALLGGGKAWSDDTSQLGPDKHARDVPSLDKYAEERWEVVLHFMVGSPSAAVSQDLAQLLSQAGLMKSTEPGEPPCITSAGFQFLLLDTPAQLWYFMLQYLQTAQSRGMDLVEILSFLFQLSFSTLGKDYSVEGMSDSLLNFLQHLREFGLVFQRKRKSRRYYPTRLAINLSSGVSGAGGTVHQPGFIVVATNYALYAYTESELQIALIALFSEMLYRFPNMVVAQVTRESVQQAIASGITAQQIIHFLRTRAHPVMLKQTPVLPPTITDQIRLWELERDRLRFTEGVLYNQFLSQVDFELLLAHARELGVLVFENSAKRLMVVTPAGHSDVKRFWKRQKHSS [chain 1 E310A, chain 1 R314A]
~0.02 Normalized Western Signal	chain 1 MESTPSRGLNRVHLQCRNLQEFLGGLSPGVLDRLYGHPATCLAVFRELPSLAKNWVMRMLFLEQPLPQAAVALWVKKEFSKAQEESTGLLSGLRIWHTQLLPGGLQGLILNPIFRQNLRIALLGGGKAWSDDTSQLGPDKHARDVPSLDKYAEERWEVVLHFMVGSPSAAVSQDLAQLLSQAGLMKSTEPGEPPCITSAGFQFLLLDTPAQLWYFMLQYLQTAQSRGMDLVEILSFLFQLSFSTLGKDYSVEGMSDSLLNFLQHLREFGLVFQRKRKSRRYYPTRLAINLSSGVSGAGGTVHQPGFIVVETNYRLAAATESELQIALIALFSEMLYRFPNMVVAQVTRESVQQAIASGITAQQIIHFLRTRAHPVMLKQTPVLPPTITDQIRLWELERDRLRFTEGVLYNQFLSQVDFELLLAHARELGVLVFENSAKRLMVVTPAGHSDVKRFWKRQKHSS [chain 1 Y316A, chain 1 Y318A]
~0.01 Normalized Western Signal	chain 1 MESTPSRGLNRVHLQCRNLQEFLGGLSPGVLDRLYGHPATCLAVFRELPSLAKNWVMRMLFLEQPLPQAAVALWVKKEFSKAQEESTGLLSGLRIWHTQLLPGGLQGLILNPIFRQNLRIALLGGGKAWSDDTSQLGPDKHARDVPSLDKYAEERWEVVLHFMVGSPSAAVSQDLAQLLSQAGLMKSTEPGEPPCITSAGFQFLLLDTPAQLWYFMLQYLQTAQSRGMDLVEILSFLFQLSFSTLGKDYSVEGMSDSLLNFLQHLREFGLVFQRKRKSRRYYPTRLAINLSSGVSGAGGTVHQPGFIVVFTNYRLYAYTESELQIALIALFSEMLYRFPNMVVAQVTRESVQQAIASGITAQQIIHFLRTRAHPVMLKQTPVLPPTITDQIRLWELERDRLRFTEGVLYNQFLSQVDFELLLAHARELGVLVFENSAKRLMVVTPAGHSDVKRFWKRQKHSS [chain 1 E310F]

Variants of: B1
Test: FLAG-IP LC–MS (iBAQ); HEK293T nuclear extracts; n = 3, biological replicates; read off a plot

response	Variant
~0.78 Normalized Log2 iBAQ	chain 1 MESTPSRGLNRVHLQCRNLQEFLGGLSPGVLDRLYGHPATCLAVFRELPSLAKNWVMRMLFLEQPLPQAAVALWVKKEFSKAQEESTGLLSGLRIWHTQLLPGGLQGLILNPIFRQNLRIALLGGGKAWSDDTSQLGPDKHARDVPSLDKYAEERWEVVLHFMVGSPSAAVSQDLAQLLSQAGLMKSTEPGEPPCITSAGFQFLLLDTPAQLWYFMLQYLQTAQSRGMDLVEILSFLFQLSFSTLGKDYSVEGMSDSLLNFLQHLREFGLVFQRKRKSRRYYPTRLAINLSSGVSGAGGTVHQPGFIVVATNYALYAYTESELQIALIALFSEMLYRFPNMVVAQVTRESVQQAIASGITAQQIIHFLRTRAHPVMLKQTPVLPPTITDQIRLWELERDRLRFTEGVLYNQFLSQVDFELLLAHARELGVLVFENSAKRLMVVTPAGHSDVKRFWKRQKHSS [chain 1 E310A, chain 1 R314A]
~0.63 Normalized Log2 iBAQ	chain 1 MESTPSRGLNRVHLQCRNLQEFLGGLSPGVLDRLYGHPATCLAVFRELPSLAKNWVMRMLFLEQPLPQAAVALWVKKEFSKAQEESTGLLSGLRIWHTQLLPGGLQGLILNPIFRQNLRIALLGGGKAWSDDTSQLGPDKHARDVPSLDKYAEERWEVVLHFMVGSPSAAVSQDLAQLLSQAGLMKSTEPGEPPCITSAGFQFLLLDTPAQLWYFMLQYLQTAQSRGMDLVEILSFLFQLSFSTLGKDYSVEGMSDSLLNFLQHLREFGLVFQRKRKSRRYYPTRLAINLSSGVSGAGGTVHQPGFIVVETNYRLAAATESELQIALIALFSEMLYRFPNMVVAQVTRESVQQAIASGITAQQIIHFLRTRAHPVMLKQTPVLPPTITDQIRLWELERDRLRFTEGVLYNQFLSQVDFELLLAHARELGVLVFENSAKRLMVVTPAGHSDVKRFWKRQKHSS [chain 1 Y316A, chain 1 Y318A]
~0.57 Normalized Log2 iBAQ	chain 1 MESTPSRGLNRVHLQCRNLQEFLGGLSPGVLDRLYGHPATCLAVFRELPSLAKNWVMRMLFLEQPLPQAAVALWVKKEFSKAQEESTGLLSGLRIWHTQLLPGGLQGLILNPIFRQNLRIALLGGGKAWSDDTSQLGPDKHARDVPSLDKYAEERWEVVLHFMVGSPSAAVSQDLAQLLSQAGLMKSTEPGEPPCITSAGFQFLLLDTPAQLWYFMLQYLQTAQSRGMDLVEILSFLFQLSFSTLGKDYSVEGMSDSLLNFLQHLREFGLVFQRKRKSRRYYPTRLAINLSSGVSGAGGTVHQPGFIVVFTNYRLYAYTESELQIALIALFSEMLYRFPNMVVAQVTRESVQQAIASGITAQQIIHFLRTRAHPVMLKQTPVLPPTITDQIRLWELERDRLRFTEGVLYNQFLSQVDFELLLAHARELGVLVFENSAKRLMVVTPAGHSDVKRFWKRQKHSS [chain 1 E310F]
